T1: PDZD2_2, O15018
T1 sequence (O15018 329-429, limits assumed, looked up): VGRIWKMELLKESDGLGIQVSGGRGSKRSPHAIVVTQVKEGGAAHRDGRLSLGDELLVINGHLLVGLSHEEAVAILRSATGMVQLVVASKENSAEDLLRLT

T2: PDZD7_3, Q9H5P4
T2 sequence (Q9H5P4 857-944, limits assumed, looked up): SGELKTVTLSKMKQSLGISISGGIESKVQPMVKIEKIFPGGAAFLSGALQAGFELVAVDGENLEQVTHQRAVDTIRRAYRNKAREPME

T3: NHERF3_3, Q5T2W1
T3 sequence (Q5T2W1 238-333, limits assumed, looked up): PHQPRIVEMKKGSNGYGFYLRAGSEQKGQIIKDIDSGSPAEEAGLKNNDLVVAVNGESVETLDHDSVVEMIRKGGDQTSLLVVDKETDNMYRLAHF

T4: LNX2_3, Q8N448
T4 sequence (Q8N448 463-564, limits assumed, looked up): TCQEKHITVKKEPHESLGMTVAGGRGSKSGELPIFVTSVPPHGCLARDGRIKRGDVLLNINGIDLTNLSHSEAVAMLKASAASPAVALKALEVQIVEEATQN

T5: ARHGAP21, Q5T5U3
T5 sequence (Q5T5U3 45-169, limits assumed, looked up): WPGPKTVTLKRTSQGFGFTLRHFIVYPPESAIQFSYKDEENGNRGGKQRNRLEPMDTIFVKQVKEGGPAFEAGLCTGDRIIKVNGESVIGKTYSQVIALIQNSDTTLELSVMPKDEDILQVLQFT

T6: NHERF3_4, Q5T2W1
T6 sequence (Q5T2W1 373-468, limits assumed, looked up): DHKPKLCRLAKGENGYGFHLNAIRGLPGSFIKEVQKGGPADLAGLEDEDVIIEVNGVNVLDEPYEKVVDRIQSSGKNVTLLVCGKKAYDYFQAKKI

T7: GRIP1_3, Q9Y3R0
T7 sequence (Q9Y3R0 247-346, limits assumed, looked up): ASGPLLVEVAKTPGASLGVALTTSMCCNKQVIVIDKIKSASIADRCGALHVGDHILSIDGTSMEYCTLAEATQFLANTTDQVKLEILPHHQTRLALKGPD

T8: HTRA3, P83110
T8 sequence (P83110 354-453, limits assumed, looked up): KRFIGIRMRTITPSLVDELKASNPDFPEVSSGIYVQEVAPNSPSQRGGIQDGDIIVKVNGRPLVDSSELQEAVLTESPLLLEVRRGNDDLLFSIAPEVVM

T9: APBA2_2, Q99767
T9 sequence (Q99767 654-744, limits assumed, looked up): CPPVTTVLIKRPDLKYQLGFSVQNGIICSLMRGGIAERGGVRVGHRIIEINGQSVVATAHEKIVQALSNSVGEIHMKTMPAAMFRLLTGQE

T10: LRRC7, Q96NW7
T10 sequence (Q96NW7 1440-1537, limits assumed, looked up): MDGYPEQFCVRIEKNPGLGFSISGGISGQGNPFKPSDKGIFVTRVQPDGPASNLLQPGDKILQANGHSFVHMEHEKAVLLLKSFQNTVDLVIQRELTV

T11: FRMPD1, Q5SYB0
T11 sequence (Q5SYB0 52-145, limits assumed, looked up): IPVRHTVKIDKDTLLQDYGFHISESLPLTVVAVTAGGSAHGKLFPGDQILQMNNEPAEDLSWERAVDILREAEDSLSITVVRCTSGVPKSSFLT

T12: APBA2_1, Q99767
T12 sequence (Q99767 563-664, limits assumed, looked up): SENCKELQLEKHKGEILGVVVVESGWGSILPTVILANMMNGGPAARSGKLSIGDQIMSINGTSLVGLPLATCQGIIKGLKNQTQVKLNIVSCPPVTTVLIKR

T13: TJP3_3, O95049
T13 sequence (O95049 375-456, limits assumed, looked up): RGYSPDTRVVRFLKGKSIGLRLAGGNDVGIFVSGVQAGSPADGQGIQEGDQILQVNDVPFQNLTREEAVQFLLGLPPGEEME


Key:
Assay in all cases: holdup assay
Parameters in all cases: key: below the threshold = too weak to quantify, mostly under pKd 3.1 to 4
Conditions in all cases: plain residues with an end cap or a label only (N-terminal biotin on a linker: ado-ado)
MAST1, Q9Y2H9 = target: MAST1, Q9Y2H9
MAST1, Q9Y2H9, sequence (Q9Y2H9 962-1065): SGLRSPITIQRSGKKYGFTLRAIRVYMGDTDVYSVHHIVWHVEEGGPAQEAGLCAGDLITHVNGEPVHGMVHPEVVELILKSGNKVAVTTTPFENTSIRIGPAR

PDZD2_2, O15018 = target: T1, PDZD2_2, O15018
PDZD7_3, Q9H5P4 = target: T2, PDZD7_3, Q9H5P4
LNX1_1, Q8TBB1 = target: LNX1_1, Q8TBB1
LNX1_1, Q8TBB1, sequence (Q8TBB1 261-371): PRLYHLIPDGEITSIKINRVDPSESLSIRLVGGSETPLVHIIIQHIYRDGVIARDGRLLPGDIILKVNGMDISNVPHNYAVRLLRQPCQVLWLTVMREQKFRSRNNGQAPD

NHERF3_3, Q5T2W1 = target: T3, NHERF3_3, Q5T2W1
LNX2_3, Q8N448 = target: T4, LNX2_3, Q8N448
ARHGAP21, Q5T5U3 = target: T5, ARHGAP21, Q5T5U3
NHERF3_4, Q5T2W1 = target: T6, NHERF3_4, Q5T2W1
GRIP1_3, Q9Y3R0 = target: T7, GRIP1_3, Q9Y3R0
TJP1_3, Q07157 = target: TJP1_3, Q07157
TJP1_3, Q07157, sequence (Q07157 416-512): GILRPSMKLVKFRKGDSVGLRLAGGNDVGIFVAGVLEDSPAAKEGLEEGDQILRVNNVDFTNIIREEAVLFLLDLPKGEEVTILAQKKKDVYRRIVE

HTRA3, P83110 = target: T8, HTRA3, P83110
DLG1_1, Q12959 = target: DLG1_1, Q12959
APBA2_2, Q99767 = target: T9, APBA2_2, Q99767
GOPC, Q9HD26 = target: GOPC, Q9HD26
IL16_3, Q14005 = target: IL16_3, Q14005
IL16_3, Q14005, sequence (Q14005 1107-1207): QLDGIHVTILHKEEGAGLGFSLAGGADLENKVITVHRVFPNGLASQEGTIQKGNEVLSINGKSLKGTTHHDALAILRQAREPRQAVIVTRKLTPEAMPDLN

FRMPD3, Q5JV73 = target: FRMPD3, Q5JV73
FRMPD3, Q5JV73, sequence (Q5JV73 12-100): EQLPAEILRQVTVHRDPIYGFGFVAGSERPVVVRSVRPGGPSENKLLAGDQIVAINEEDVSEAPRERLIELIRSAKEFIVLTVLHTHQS

LRRC7, Q96NW7 = target: T10, LRRC7, Q96NW7
FRMPD1, Q5SYB0 = target: T11, FRMPD1, Q5SYB0
GRIP2_7, Q9C0E4 = target: GRIP2_7, Q9C0E4
GRIP2_7, Q9C0E4, sequence (Q9C0E4 934-1023): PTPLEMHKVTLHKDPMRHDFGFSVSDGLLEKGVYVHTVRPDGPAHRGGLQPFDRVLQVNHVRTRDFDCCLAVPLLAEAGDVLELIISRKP

Inadl_5, Q8NI35 = target: Inadl_5, Q8NI35
Inadl_5, Q8NI35, sequence (Q8NI35 673-780): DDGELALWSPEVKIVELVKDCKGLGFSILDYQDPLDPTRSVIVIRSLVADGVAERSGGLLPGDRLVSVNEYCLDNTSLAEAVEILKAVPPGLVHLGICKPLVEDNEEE

Inadl_9, Q8NI35 = target: Inadl_9, Q8NI35
Inadl_9, Q8NI35, sequence (Q8NI35 1530-1615): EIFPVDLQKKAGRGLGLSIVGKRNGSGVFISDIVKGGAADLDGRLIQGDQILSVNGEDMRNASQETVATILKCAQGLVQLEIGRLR

APBA2_1, Q99767 = target: T12, APBA2_1, Q99767
Inadl_3, Q8NI35 = target: Inadl_3, Q8NI35
Inadl_3, Q8NI35, sequence (Q8NI35 359-469): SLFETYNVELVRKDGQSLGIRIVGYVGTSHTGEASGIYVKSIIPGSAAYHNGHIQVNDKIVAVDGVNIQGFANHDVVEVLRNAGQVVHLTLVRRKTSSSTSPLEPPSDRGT

TJP3_3, O95049 = target: T13, TJP3_3, O95049
DLG2_3, Q15700 = target: DLG2_3, Q15700

pKd (MAST1, Q9Y2H9)	pKd (PDZD2_2, O15018)	pKd (PDZD7_3, Q9H5P4)	pKd (LNX1_1, Q8TBB1)	pKd (NHERF3_3, Q5T2W1)	pKd (LNX2_3, Q8N448)	pKd (ARHGAP21, Q5T5U3)	pKd (NHERF3_4, Q5T2W1)	pKd (GRIP1_3, Q9Y3R0)	pKd (TJP1_3, Q07157)	pKd (HTRA3, P83110)	pKd (DLG1_1, Q12959)	pKd (APBA2_2, Q99767)	pKd (GOPC, Q9HD26)	pKd (IL16_3, Q14005)	pKd (FRMPD3, Q5JV73)	pKd (LRRC7, Q96NW7)	pKd (FRMPD1, Q5SYB0)	pKd (GRIP2_7, Q9C0E4)	pKd (Inadl_5, Q8NI35)	Binder	further results
below the threshold	below the threshold	below the threshold	below the threshold	below the threshold	below the threshold	below the threshold	below the threshold	below the threshold	below the threshold	below the threshold	below the threshold	below the threshold	below the threshold	below the threshold	below the threshold	below the threshold	below the threshold	below the threshold	below the threshold	VKQYADVEGF [HNRNPK, P61978;P61978-2]	pKd (Inadl_9, Q8NI35): below the threshold; pKd (APBA2_1, Q99767): below the threshold; pKd (Inadl_3, Q8NI35): below the threshold; pKd (TJP3_3, O95049): below the threshold
5.07	3.72	below the threshold	3.85	4.16	below the threshold	below the threshold	4.15	below the threshold	below the threshold	below the threshold	below the threshold	below the threshold	below the threshold	below the threshold	below the threshold	below the threshold	below the threshold	below the threshold	below the threshold	VYEVPVETKF [SLC26A3, P40879]	pKd (Inadl_9, Q8NI35): below the threshold; pKd (APBA2_1, Q99767): below the threshold; pKd (Inadl_3, Q8NI35): below the threshold; pKd (TJP3_3, O95049): below the threshold; pKd (DLG2_3, Q15700): 3.74
4.63	below the threshold	below the threshold	below the threshold	below the threshold	below the threshold	4.05	3.52	below the threshold	below the threshold	below the threshold	below the threshold	below the threshold	below the threshold	below the threshold	below the threshold	below the threshold	below the threshold	below the threshold	below the threshold	PAALPESTHM [SLC9A3, P48764]	pKd (Inadl_9, Q8NI35): below the threshold; pKd (APBA2_1, Q99767): below the threshold; pKd (Inadl_3, Q8NI35): below the threshold; pKd (TJP3_3, O95049): below the threshold; pKd (DLG2_3, Q15700): below the threshold
below the threshold	3.62	below the threshold	below the threshold	below the threshold	below the threshold	3.47	below the threshold	below the threshold	below the threshold	below the threshold	below the threshold	below the threshold	below the threshold	below the threshold	below the threshold	below the threshold	below the threshold	below the threshold	below the threshold	PSDSVGKDVF [EGLN1, Q9GZT9]	pKd (Inadl_9, Q8NI35): below the threshold; pKd (APBA2_1, Q99767): below the threshold; pKd (Inadl_3, Q8NI35): below the threshold; pKd (TJP3_3, O95049): below the threshold; pKd (DLG2_3, Q15700): 3.57
below the threshold	5.11	below the threshold	below the threshold	below the threshold	below the threshold	3.84	below the threshold	below the threshold	below the threshold	4.06	below the threshold	below the threshold	below the threshold	below the threshold	below the threshold	below the threshold	below the threshold	below the threshold	3.52	SKQFDKNAYV [CLDN10, P78369]	pKd (Inadl_9, Q8NI35): below the threshold; pKd (APBA2_1, Q99767): below the threshold; pKd (Inadl_3, Q8NI35): below the threshold; pKd (TJP3_3, O95049): 3.68; pKd (DLG2_3, Q15700): below the threshold

Source: publication PMC9482650, “Quantitative fragmentomics allow affinity mapping of interactomes” (Nature Communications, 2022)
